Results taken from patent publication US20190382455A1 (Sanofi, published 2019).

Columns and labels:
MMP-9 proform = target: T1, MMP-9 proform (UniProt P14780 20-707); experiment: SPR (Biacore T200), biotinylated fusion molecule captured on CAP chip, MMP-9 proform as analyte
T1 construct: Used as analyte in SPR; also called proform MMP-9; proform MMP9

activated MMP-9 = target: T2, activated MMP-9 (UniProt P14780 107-707, limits assumed); experiment: SPR (Biacore T200), biotinylated fusion molecule captured on CAP chip, activated MMP-9 as analyte
T2 construct: Used as analyte in SPR
T2 sequence (P14780 107-707 limits assumed): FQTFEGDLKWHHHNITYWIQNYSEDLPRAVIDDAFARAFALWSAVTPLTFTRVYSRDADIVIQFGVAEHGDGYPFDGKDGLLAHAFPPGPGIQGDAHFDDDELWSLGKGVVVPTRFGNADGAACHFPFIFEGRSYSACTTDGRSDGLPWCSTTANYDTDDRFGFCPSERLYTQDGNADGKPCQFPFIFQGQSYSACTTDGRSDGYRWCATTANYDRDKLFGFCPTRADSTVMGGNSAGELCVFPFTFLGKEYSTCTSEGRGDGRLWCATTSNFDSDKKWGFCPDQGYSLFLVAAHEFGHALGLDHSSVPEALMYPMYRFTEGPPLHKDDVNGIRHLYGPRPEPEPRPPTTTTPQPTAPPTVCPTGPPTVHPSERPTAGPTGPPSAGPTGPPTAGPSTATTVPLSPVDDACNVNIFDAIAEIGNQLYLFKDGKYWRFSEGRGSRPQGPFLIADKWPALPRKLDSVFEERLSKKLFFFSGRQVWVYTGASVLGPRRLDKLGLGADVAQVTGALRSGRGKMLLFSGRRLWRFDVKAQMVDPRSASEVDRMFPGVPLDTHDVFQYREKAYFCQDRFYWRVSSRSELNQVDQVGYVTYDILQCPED

T1 sequence (P14780 20-707 limits assumed): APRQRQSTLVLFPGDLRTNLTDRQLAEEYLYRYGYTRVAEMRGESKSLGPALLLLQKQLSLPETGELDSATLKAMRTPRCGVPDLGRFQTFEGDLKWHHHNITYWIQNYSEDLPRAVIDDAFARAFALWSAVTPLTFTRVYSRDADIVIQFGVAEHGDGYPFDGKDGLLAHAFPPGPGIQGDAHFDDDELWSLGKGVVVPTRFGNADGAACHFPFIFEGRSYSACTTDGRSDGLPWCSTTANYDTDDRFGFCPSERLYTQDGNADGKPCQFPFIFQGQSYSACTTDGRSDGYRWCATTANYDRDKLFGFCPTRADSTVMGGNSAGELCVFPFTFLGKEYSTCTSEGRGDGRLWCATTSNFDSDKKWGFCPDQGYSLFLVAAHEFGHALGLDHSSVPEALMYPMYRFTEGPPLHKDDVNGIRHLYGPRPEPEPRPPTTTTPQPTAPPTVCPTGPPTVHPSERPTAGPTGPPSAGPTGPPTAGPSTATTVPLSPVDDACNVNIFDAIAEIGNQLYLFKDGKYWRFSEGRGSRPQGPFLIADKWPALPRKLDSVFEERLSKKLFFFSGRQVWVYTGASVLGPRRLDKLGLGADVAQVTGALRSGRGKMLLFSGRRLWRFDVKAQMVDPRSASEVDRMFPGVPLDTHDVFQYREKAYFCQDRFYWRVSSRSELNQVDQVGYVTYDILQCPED

B1: fusion molecule of SEQ ID NO: 134 (designed binder)
chain: QDSTSDLIPAPPLSKVPLQQNFQDNQFQGKWYVVGVAGNTILREDKDPGKMNAAIYELKEDKSYDVTDVRFIRKKCHYYIDTFVPGSQPGEFTLGNIKSYPGTTSQLVRVVSTNYNQHAMVFFKIVRQNREIFWITLYGRTKELTSELKENFIRFSKSLGLPENHIVFPVPIDQCIDGGGGGSGGGGSQDSTSDLIPAPPLSKVPLQQNFQDNQFQGKWYVVGWAGNTALREDKDPPKMPAVIYELKEDKSYDVTDVQFPEKECIYSTITFVPGSQPGEFTLGGIKSSPGQTSHLVRVVSTNYNQHAMVFFKYVTQNREGFNIALYGRTKELTSELKENFIRFSKSLGLPENHIVFPVPIDQCIDGGGGGSGGGGSQDSTSDLIPAPPLSKVPLQQNFQDNQFQGKWYVVGEAGNLARREDKDPMKMMATIYELKEDKSYDVTEVRFRHKKCKYDIVTFVPGSQPGEFTLGLIKSDPGQTPELVRVVSTNYNQHAMVFFKKVVQNREYFWITLYGRTKELTSELKENFIRFSKSLGLPENHIVFPVPIDQCIDGGGGGSGGGGSQDSTSDLIPAPPLSKVPLQQNFQDNQFQGKWYVVGHAGNQWLREGRDPRKMWATIYELKEDKSYDVTDVDFAIKKCLYRITTFVPGSQPGEFTLGNIKSHPGGTSGLVRVVSTNYNQHAMVFFKFVIQNREAFFITLYGRTKELTSELKENFIRFSKSLGLPENHIVFPVPIDQCIDG
modifications: biotinylated with EZ-Link NHS-PEG4-Biotin for capture on the chip
notes: also called RA10680550
binding result (MMP-9 proform): no binding (tested: ≥1 µM)
binding result (activated MMP-9): no binding (tested: ≥1 µM)
